Measurements: the Human Domainome abundance scans (Beltran et al. 2025)
± gives the uncertainty stated by the source.

B1: LIM and senescent cell antigen-like-containing domain protein 2, residues 13 to 71; numbered along this chain, Q7Z4I7 (parent)
chain: AVCQRCQARFSPAERIVNSNGELYHEHCFVCAQCFRPFPEGLFYEFEGRKYCEHDFQML

Variants of: B1
Assay: abundance fitness (aPCA) (normalised: wild type 0, dead -1); higher = more abundant; growth selection in yeast, the domain comes from the species named
Settings: Homo sapiens

| Variant | abundance fitness |
| --- | --- |
| AVCQRCQARFSPAERIVNSNGELYHNHCFVCAQCFRPFPEGLFYEFEGRKYCEHDFQML [E26N] | -0.395 ± 0.27 |
| AVCQRCQARFSPAERIVNSNGELYHKHCFVCAQCFRPFPEGLFYEFEGRKYCEHDFQML [E26K] | -0.125 ± 0.1 |
| AVCQRCQARFSPAERIVNSNGELYHGHCFVCAQCFRPFPEGLFYEFEGRKYCEHDFQML [E26G] | -0.353 ± 0.083 |
| AVCQRCQARFSPAERIVNSNGELYHTHCFVCAQCFRPFPEGLFYEFEGRKYCEHDFQML [E26T] | -0.164 ± 0.1 |
| AVCQRCQARFSPAERIVNSNGELYHVHCFVCAQCFRPFPEGLFYEFEGRKYCEHDFQML [E26V] | 0.022 ± 0.068 |
| AVCQRCQARFSPAERIVNSNGELYHSHCFVCAQCFRPFPEGLFYEFEGRKYCEHDFQML [E26S] | -0.051 ± 0.072 |
| AVCQRCQARFSPAERIVNSNGELYHLHCFVCAQCFRPFPEGLFYEFEGRKYCEHDFQML [E26L] | -0.401 ± 0.065 |
| AVCQRCQARFSPAERIVNSNGELYHMHCFVCAQCFRPFPEGLFYEFEGRKYCEHDFQML [E26M] | -0.253 ± 0.095 |
| AVCQRCQARFSPAERIVNSNGELYHDHCFVCAQCFRPFPEGLFYEFEGRKYCEHDFQML [E26D] | -0.114 ± 0.19 |
| AVCQRCQARFSPAERIVNSNGELYHIHCFVCAQCFRPFPEGLFYEFEGRKYCEHDFQML [E26I] | -0.084 ± 0.17 |
| AVCQRCQARFSPAERIVNSNGELYHHHCFVCAQCFRPFPEGLFYEFEGRKYCEHDFQML [E26H] | -0.082 ± 0.2 |
| AVCQRCQARFSPAERIVNSNGELYHFHCFVCAQCFRPFPEGLFYEFEGRKYCEHDFQML [E26F] | -0.293 ± 0.12 |
| AVCQRCQARFSPAERIVNSNGELYHPHCFVCAQCFRPFPEGLFYEFEGRKYCEHDFQML [E26P] | -0.294 ± 0.093 |
| AVCQRCQARFSPAERIVNSNGELYHCHCFVCAQCFRPFPEGLFYEFEGRKYCEHDFQML [E26C] | -0.51 ± 0.21 |
| AVCQRCQARFSPAERIVNSNGELYHRHCFVCAQCFRPFPEGLFYEFEGRKYCEHDFQML [E26R] | -0.237 ± 0.073 |
| AVCQRCQARFSPAERIVNSNGELYHYHCFVCAQCFRPFPEGLFYEFEGRKYCEHDFQML [E26Y] | -0.115 ± 0.18 |
| AVCQRCQARFSPAERIVNSNGELYHWHCFVCAQCFRPFPEGLFYEFEGRKYCEHDFQML [E26W] | -0.547 ± 0.14 |
| AVCQRCQARFSPAERIVNSNGELYHEHCFQCAQCFRPFPEGLFYEFEGRKYCEHDFQML [V30Q] | -0.265 ± 0.13 |
| AVCQRCQARFSPAERIVNSNGELYHEHCFGCAQCFRPFPEGLFYEFEGRKYCEHDFQML [V30G] | -0.233 ± 0.076 |
| AVCQRCQARFSPAERIVNSNGELYHEHCFDCAQCFRPFPEGLFYEFEGRKYCEHDFQML [V30D] | -0.798 ± 0.27 |
| AVCQRCQARFSPAERIVNSNGELYHEHCFKCAQCFRPFPEGLFYEFEGRKYCEHDFQML [V30K] | -0.224 ± 0.11 |
| AVCQRCQARFSPAERIVNSNGELYHEHCFECAQCFRPFPEGLFYEFEGRKYCEHDFQML [V30E] | -0.294 ± 0.16 |
| AVCQRCQARFSPAERIVNSNGELYHEHCFYCAQCFRPFPEGLFYEFEGRKYCEHDFQML [V30Y] | -0.343 ± 0.11 |

| Variant | abundance fitness |
| --- | --- |
| AVCQRCQARFSPAERIVNSNGELYHEHCFHCAQCFRPFPEGLFYEFEGRKYCEHDFQML [V30H] | -0.143 ± 0.18 |
| AVCQRCQARFSPAERIVNSNGELYHEHCFNCAQCFRPFPEGLFYEFEGRKYCEHDFQML [V30N] | -0.257 ± 0.14 |
| AVCQRCQARFSPAERIVNSNGELYHEHCFMCAQCFRPFPEGLFYEFEGRKYCEHDFQML [V30M] | -0.311 ± 0.1 |
| AVCQRCQARFSPAERIVNSNGELYHEHCFSCAQCFRPFPEGLFYEFEGRKYCEHDFQML [V30S] | -0.114 ± 0.063 |
| AVCQRCQARFSPAERIVNSNGELYHEHCFCCAQCFRPFPEGLFYEFEGRKYCEHDFQML [V30C] | -0.11 ± 0.08 |
| AVCQRCQARFSPAERIVNSNGELYHEHCFRCAQCFRPFPEGLFYEFEGRKYCEHDFQML [V30R] | -0.093 ± 0.059 |
| AVCQRCQARFSPAERIVNSNGELYHEHCFICAQCFRPFPEGLFYEFEGRKYCEHDFQML [V30I] | -0.252 ± 0.12 |
| AVCQRCQARFSPAERIVNSNGELYHEHCFTCAQCFRPFPEGLFYEFEGRKYCEHDFQML [V30T] | -0.065 ± 0.084 |
| AVCQRCQARFSPAERIVNSNGELYHEHCFLCAQCFRPFPEGLFYEFEGRKYCEHDFQML [V30L] | -0.021 ± 0.062 |
| AVCQRCQARFSPAERIVNSNGELYHEHCFWCAQCFRPFPEGLFYEFEGRKYCEHDFQML [V30W] | -0.411 ± 0.13 |
| AVCQRCQARFSPAERIVNSNGELYHEHCFFCAQCFRPFPEGLFYEFEGRKYCEHDFQML [V30F] | -0.097 ± 0.092 |
| AVCQRCQARFSPAERIVNSNGELYHEVCFVCAQCFRPFPEGLFYEFEGRKYCEHDFQML [H27V] | -0.001 ± 0.31 |
| AVCQRCQARFSPAERIVNSNGELYHEFCFVCAQCFRPFPEGLFYEFEGRKYCEHDFQML [H27F] | -0.209 ± 0.43 |
| AVCQRCQARFSPAERIVNSNGELYHETCFVCAQCFRPFPEGLFYEFEGRKYCEHDFQML [H27T] | -0.227 ± 0.39 |
| AVCQRCQARFSPAERIVNSNGELYHEACFVCAQCFRPFPEGLFYEFEGRKYCEHDFQML [H27A] | -0.175 ± 0.25 |
| AVCQRCQARFSPAERIVNSNGELYHESCFVCAQCFRPFPEGLFYEFEGRKYCEHDFQML [H27S] | -0.227 ± 0.29 |
| AVCQRCQARFSPAERIVNSNGELYHEGCFVCAQCFRPFPEGLFYEFEGRKYCEHDFQML [H27G] | -0.294 ± 0.23 |
| AVCQRCQARFSPAERIVNSNGELYHEQCFVCAQCFRPFPEGLFYEFEGRKYCEHDFQML [H27Q] | 0.148 ± 0.31 |
| AVCQRCQARFSPAERIVNSNGELYHERCFVCAQCFRPFPEGLFYEFEGRKYCEHDFQML [H27R] | -0.016 ± 0.18 |
| AVCQRCQARFSPAERIVNSNGELYHEPCFVCAQCFRPFPEGLFYEFEGRKYCEHDFQML [H27P] | -0.228 ± 0.33 |
| AVCQRCQARFSPAERIVNSNGELYWEHCFVCAQCFRPFPEGLFYEFEGRKYCEHDFQML [H25W] | -0.568 ± 0.1 |
| AVCQRCQARFSPAERIVNSNGELYTEHCFVCAQCFRPFPEGLFYEFEGRKYCEHDFQML [H25T] | -0.808 ± 0.12 |
